The values that follow are results of earlier work, collected in article PMC2827930.

For orientation: Kd means a measure of binding affinity in units of concentration.

This series addresses RBPjκ (UniProt P31266).
UniProt P31266, sequence (P31266 53-474): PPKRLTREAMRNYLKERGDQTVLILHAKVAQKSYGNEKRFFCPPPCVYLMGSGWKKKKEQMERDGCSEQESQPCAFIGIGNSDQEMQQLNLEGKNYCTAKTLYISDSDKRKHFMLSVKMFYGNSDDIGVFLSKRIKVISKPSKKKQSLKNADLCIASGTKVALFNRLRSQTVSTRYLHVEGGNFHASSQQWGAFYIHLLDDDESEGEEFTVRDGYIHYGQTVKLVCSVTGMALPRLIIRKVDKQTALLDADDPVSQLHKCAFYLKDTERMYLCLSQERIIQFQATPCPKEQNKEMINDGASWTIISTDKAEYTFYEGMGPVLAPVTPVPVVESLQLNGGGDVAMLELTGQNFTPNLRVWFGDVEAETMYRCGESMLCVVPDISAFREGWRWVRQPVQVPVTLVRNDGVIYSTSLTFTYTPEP

Turning to Notch RAM (from UniProt P46531), the equilibrium dissociation constant (Kd) is 200 nM.
